Results on four molecules are retold here after patent publication US20200255533A1 (NUMAB THERAPEUTICS, published 2020).

Changes are numbered by the printed parent chain. Numbers in names are those of the source.

B1: Vκ1/VH4 consensus λ-capped (TNF-specific scFv) (scFv)
scFv: DIQMTQSPSSLSASVGDRVTITCQASQSISDWLAWYQQKPGKAPKLLIYGASRLASGVPSRFSGSGSGTDFTLTISSLQPEDFATYYCQQGWSDSYVDNLFGGGTKLTVLGGGGGSGGGGSGGGGSGGGGSQVQLQESGPGLVKPSETLSLTCTVSGFSLSSGAMSWIRQPPGKGLEWIGVIISSGATYYASWAKGRVTISVDTSKNQFSLKLSSVTAADTAVYYCARGGPDDSNSMGTFDPWGQGTLVTVSS
notes: scFv; also called capped Vκ1/VH4 consensus molecule
B2: Vκ1/VH4 consensus (T24K, T84S) λ-capped (TNF-specific scFv) (scFv)
scFv: B1 scFv with T154K, T204S
notes: scFv; also called Vκ1/VH4mut; mutant variant of Vκ1/VH4
B3: Vκ3/VH4 consensus λ-capped (TNF-specific scFv) (scFv)
scFv: DIVLTQSPATLSLSPGERATLSCQASQSISDWLAWYQQKPGQAPRLLIYGASRLASGVPARFSGSGSGTDFTLTISSLEPEDFAVYYCQQGWSDSYVDNLFGGGTKLTVLGGGGGSGGGGSGGGGSGGGGSQVQLQESGPGLVKPSETLSLTCTVSGFSLSSGAMSWIRQPPGKGLEWIGVIISSGATYYASWAKGRVTISVDTSKNQFSLKLSSVTAADTAVYYCARGGPDDSNSMGTFDPWGQGTLVTVSS
notes: scFv
B4: Vκ3/VH4 consensus (T24K, T84S) λ-capped (TNF-specific scFv) (scFv)
scFv: B3 scFv with T154K, T204S
notes: scFv; also called Vκ3/VH4mut

The target in this experiment is human TNF (human, UniProt P01375 77-233). As to the kind of experiment: SPR, scFv.
human TNF, sequence (P01375 77-233 limits assumed): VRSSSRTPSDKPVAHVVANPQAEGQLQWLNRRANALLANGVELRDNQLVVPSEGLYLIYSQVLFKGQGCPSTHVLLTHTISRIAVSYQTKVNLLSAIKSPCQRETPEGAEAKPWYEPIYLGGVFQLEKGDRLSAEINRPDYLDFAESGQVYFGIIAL
B1 returned a Kd of 53.3 pM, a koff of 3.36e-05 s⁻¹ and a kon of 631000 M⁻¹ s⁻¹.
For B2 the same measures were 43 pM, 3.28e-05 s⁻¹ and 764000 M⁻¹ s⁻¹.
For B3 the same measures were 119 pM, 5.25e-05 s⁻¹ and 440000 M⁻¹ s⁻¹.
For B4 the same measures were 79.3 pM, 3.09e-05 s⁻¹ and 390000 M⁻¹ s⁻¹.

By Kd is commonly meant the concentration at which binding is half-saturated. High values mean weaker binding, low ones tighter binding. Usually koff stands for a measure of how fast the partners let go of each other. The low end stands for a long-lived complex, the high end for a short-lived complex. By kon is commonly meant the rate constant with which the complex forms. Low values mean slow association, high ones fast association.
